Data taken from paper PMC5110521, “EstDZ3: A New Esterolytic Enzyme Exhibiting Remarkable Thermostability” (Frontiers in Microbiology, 2016).

Tests used:
Test in all cases: purified protein
Format in all cases: biochemical, Dictyoglomus thermophilum
Conditions in all cases: 25 mM Tris-HCl pH 8, 0.05% Triton X-100, 75°C (standard reaction), substrate 0.1 to 1 mM
purified protein [1] = substrate: CCCCCCCC(=O)Oc1ccc([N+](=O)[O-])cc1
purified protein [2] = substrate: CC(=O)Oc1ccc([N+](=O)[O-])cc1
purified protein [3] = substrate: CCCCCCCCCCCC(=O)Oc1ccc([N+](=O)[O-])cc1
purified protein [4] = substrate: CCCCCCCCCC(=O)Oc1ccc([N+](=O)[O-])cc1
purified protein [5] = substrate: CCCC(=O)Oc1ccc([N+](=O)[O-])cc1

B1: EstDZ3 (Dictyoglomus thermophilum) (protein)
chain: MTENREPVVLKNQGQKIFGVIHIPEKTPAPFVLFCHGFTGTKIEPHRIFVKTAEALAKEGIGALRIDFRGSGDSEGSFKDMTVEGEVSDAMVAIEYLSQNNLVDKEKIGILGLSMGGAVASITSGRNPLIKSCVLWSAVCHFDIFFNRSPEEVSRIKDYGDFIDLGGNPVGKKFLSEIVNIKPLEEIKKRSIPVLIIHGSGDMVVPIQHAYDYFNGLKDTHKVKLEIIEGADHTFNSIEWEEKVIEKTVNWFKETL
notes: full-length ORF, 256 residues (modelled 1 to 256), no signal peptide; pLATE52 poly-histidine tag kept; E. coli BL21(DE3); heat treatment and Ni-NTA; forward primer encodes MTENREP
- Km (purified protein [1]): 190 ± 10 µM
- Vmax (purified protein [1]): 501 µmol/min/mg
- kcat (purified protein [1]): 104 s⁻¹
- kcat/Km (purified protein [1]): 557000 M⁻¹ s⁻¹
- Km (purified protein [2]): 300 ± 70 µM
- Vmax (purified protein [2]): 355 µmol/min/mg
- kcat (purified protein [2]): 740 s⁻¹
- kcat/Km (purified protein [2]): 2.43e+06 M⁻¹ s⁻¹
- Km (purified protein [3]): 610 ± 140 µM
- Vmax (purified protein [3]): 357 µmol/min/mg
- kcat (purified protein [3]): 743 s⁻¹
- kcat/Km (purified protein [3]): 1.27e+06 M⁻¹ s⁻¹
- Km (purified protein [4]): 170 ± 10 µM
- Vmax (purified protein [4]): 387 µmol/min/mg
- kcat (purified protein [4]): 80 s⁻¹
- kcat/Km (purified protein [4]): 471000 M⁻¹ s⁻¹
- Km (purified protein [5]): 150 ± 20 µM
- Vmax (purified protein [5]): 906 µmol/min/mg
- kcat (purified protein [5]): 1890 s⁻¹
- kcat/Km (purified protein [5]): 1.25e+07 M⁻¹ s⁻¹
